Tests used:
Experiment in all cases: SEC
[1] = biological target: S2P-1208.H8 (ancestral Hu-1) (SARS CoV-2 (ancestral Hu-1 isolate)) (UniProt P0DTC2)
[2] = biological target: S2P.OmiBA.4/5-1208.H8 (SARS CoV-2 (Omicron BA.4/5))
[3] = biological target: S2P.OmiBA1-1208.H8 (SARS CoV-2 (Omicron BA.1))
[4] = biological target: S2P.OmiBA1-FHA (SARS CoV-2 (Omicron BA.1) | bacteriophage T4)

For “S2P-1208.H8 (ancestral Hu-1) (from UniProt P0DTC2 16-1208) (domain or fragment)”, which stoichiometry N [1] is on record?
Its stoichiometry N is 2.

Which stoichiometry N [2] does the source give for “S2P.OmiBA.4/5-1208.H8 (domain or fragment)” here?
Its stoichiometry N is 3.

How did the percent dissociated to dimer after a freeze-thaw cycle [3] turn out when S2P.OmiBA1-1208.H8 (domain or fragment) was run?
Its percent dissociated to dimer after a freeze-thaw cycle is 15%.

And the stoichiometry N [3]?
Its stoichiometry N is 3.

With S2P.OmiBA1-FHA (domain or fragment) as the substance, how does the stoichiometry N [4] read?
Its stoichiometry N is 3.
